This note sets out measurements from patent US20140308285A1 (Amgen, published 2014).

For assay [1], the target named is T1, folate receptor 1 (FOLR1) on tumor cell lines (Cal-51, T47D) (human, UniProt P15328 25-234). The assay is described as follows: cell-based or functional assay.
Assay [2] deals with T1, folate receptor 1 (FOLR1) on tumor cell …. The assay is described as follows: cell-based or functional assay. This is another data set of the same source.
Assay [3] deals with T2, human CD3 (CD3 epsilon chain) on human T cells (human, UniProt P07766 22-207).
T2 construct: The assay used isolated human T cells, which carry CD3 as part of the TCR-CD3 complex; also called CD3ε
The assay is described as follows: FACS on isolated human T cells, FITC anti-human light chain secondary antibody. The protocol:
The heterodimeric bispecific antibodies described in Example 1 were produced in HEK 293 cells and were assayed by fluorescence activated cell sorting (FACS) for binding to T cells, which express CD3, and to a human ovarian cancer cell line, Ovcar-8, which expresses mesothelin. Briefly, the heterodimeric bispecific antibodies were incubated with about 50,000 Ovcar-8 cells or isolated human or cynomolgus monkey T cells at 4° C. for one hour. The cells were then washed and stained with a fluorescein isothiocyanate (FITC)-conjugated anti-human light chain secondary antibody and analyzed by flow cytometry. The relative binding was represented by the geometric mean of fluorescence intensity.

T1 sequence (P15328 25-234, stated change not applied): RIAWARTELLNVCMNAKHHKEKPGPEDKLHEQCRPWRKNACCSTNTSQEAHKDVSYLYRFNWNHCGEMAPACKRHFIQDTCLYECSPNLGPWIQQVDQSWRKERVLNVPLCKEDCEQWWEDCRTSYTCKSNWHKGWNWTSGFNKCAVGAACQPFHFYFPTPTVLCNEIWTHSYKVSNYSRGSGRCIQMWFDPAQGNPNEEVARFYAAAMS
T2 sequence (P07766 22-207 limits assumed): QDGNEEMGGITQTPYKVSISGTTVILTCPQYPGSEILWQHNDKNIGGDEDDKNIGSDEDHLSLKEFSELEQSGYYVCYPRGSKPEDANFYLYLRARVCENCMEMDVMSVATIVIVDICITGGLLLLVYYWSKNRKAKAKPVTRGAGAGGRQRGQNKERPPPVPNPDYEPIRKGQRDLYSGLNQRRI

B1: P136795.3 (bispecific antibody)
chain 1: EVQLVESGGGLVQPGGSLKLSCAASGFTFNSYAMNWVRQAPGKGLEWVARIRSKYNNYATYYADSVKGRFTISRDDSKNTAYLQMNNLKTEDTAVYYCVRHGNFGNSYVSWWAYWGQGTLVTVSSGGGGSGGGGSQSVLTQPPSVSEAPRQRVTISCSGSSSNIGNNAVNWYQQLPGKAPKLLIYYDDMLSSGVSDRFSGSKSGTSASLAISGLQSEDEADYYCAAWDDSLNGVVFGGGTKLTVLASTKGPSVFPLAPCSRSTSESTAALGCLVKDYFPEPVTVSWNSGALTSGVHTFPAVLQSSGLYSLSSVVTVPSSNFGTQTYTCNVDHKPSNTKVDKTVGGGGSAAAEPKSSDKTHTCPPCPAPEAAGGPSVFLFPPKPKDTLMISRTPEVTCVVVDVSHEDPEVKFNWYVDGVEVHNAKTKPREEQYNSTYRVVSVLTVLHQDWLNGKEYKCKVSNKALPAPIEKTISKAKGQPREPQVYTLPPSREEMTKNQVSLTCLVKGFYPSDIAVEWESNGQPENNYDTTPPVLDSDGSFFLYSDLTVDKSRWQQGNVFSCSVMHEALHNHYTQKSLSLSPGK
chain 2: not shown
Consider B1, for which, in assay [1], the “EC50 (pM) for cytokine release, IFN-γ, in presence of T47D cells” value was 27.1 pM; the “EC50 (pM) for cytokine release, IL-2, in presence of T47D cells” value is 20.3 pM; the “EC50 (pM) for cytokine release, IL-10, in presence of T47D cells” value is 28.3 pM; the “EC50 (pM) for cytokine release, IL-13, in presence of T47D cells” value turned out to be 27.8 pM. Further, in assay [1], the “EC50 (pM) for cytokine release, TNF-α, in presence of T47D cells” value stood at 12.5 pM. In addition, in assay [2], the “EC50 of specific lysis, Cal-51 cells (printed Cal-61) with human T cells” value is 1.21 pM and the “EC50 of specific lysis, T47D cells with human T cells” value amounted to 1.26 pM.

B2: H71362.2 (bispecific antibody)
chain 1: EVQLVESGGGLVKPGVSLRLSCAASGFTFSRYGMNWVRQAPGKGLEWVSSISSSGTYIKYADSVKGRFTISRDNAKNSLNLQMNSLRAEDTAVYYCARDRDRYPLDYWGQGTLVTVSSASTKGPQVQLQESGPGLVKPSETLSLTCTVSGGSIISHYWSWIRQPPGKGLEWIGYIYYSGSTNYNPSLKSRVTISVDTSKNQFSLKLTSVTAADTAVYYCARDGWSAFDYWGQGTLVTVSSASTKGPSVFPLAPCSRSTSESTAALGCLVKDYFPEPVTVSWNSGALTSGVHTFPAVLQSSGLYSLSSVVTVPSSNFGTQTYTCNVDHKPSNTKVDKTVGGGGSAAAVPRDLEVVAATPTSLLISWDAIGLYPYYYRITYGETGGNSPVQEFTVPGSKSTATISGLKPGVDYTITVYAVSGIFGWNNSKPISINYRTGSSDYKDDDDKGSSHHHHHH
chain 2: SYELTQPPSVSVSPGQTARITCSGDALPKKYAYWYQQKSGQAPVLVIYEATKRPSGIPERFSGSSSGTMATLTLSGAQVEDEADYYCYSTDSTNYHWVFGGGTKLTVLGTVAAPDIQMTQSPSSLSASVGDRVTITCRASQGIRNALGWYQQKPGKAPKRLIYAASSLQSGVPSRFSGSGSGTEFTLTISSLQPEDFATYYCLQHNSYPRTFGQGTKVEIRRTVAAPSVFIFPPSDEQLKSGTASVVCLLNNFYPREAKVQWKVDNALQSGNSQESVTEQDSKDSTYSLSSTLTLSKADYEKHKVYACEVTHQGLSSPVTKSFNRGEC
On to B2, for which the “FACS binding (geometric mean)” value in assay [3] was found to be 354.

B3: P69059.3 (bispecific antibody)
chain 1: SYELTQPPSVSVSPGQTARITCSGDALPKKYAYWYQQKSGQAPVLVIYEATKRPSGIPERFSGSSSGTMATLTLSGAQVEDEADYYCYSTDSTNYHWVFGGGTKLTVLGGGGGSGGGGSQVQLQESGPGLVKPSQTLSLTCTVSGGSINNNNYYWTWIRQHPGKGLEWIGYIYYSGSTFYNPSLKSRVTISVDTSKTQFSLKLSSVTAADTAVYYCAREDTMTGLDVWGQGTTVTVSSASTKGPSVFPLAPCSRSTSESTAALGCLVKDYFPEPVTVSWNSGALTSGVHTFPAVLQSSGLYSLSSVVTVPSSNFGTQTYTCNVDHKPSNTKVDKTVGGGGSAAAVPRDLEVVAATPTSLLISWDAPHHGVAYYRITYGETGGNSPVQEFTVPGSKSTATISGLKPGVDYTINVYAVLAYPRGYPLSKPISINYRTDYKDDDDKGSSHHHHHH
chain 2: DIQMTQSPSSLSASVGDRVTITCRASQSINNYLNWYQQKPGKAPTLLIYAASSLQSGVPSRFSGSRSGTDFTLTISSLQPEDFAAYFCQQTYSNPTFGQGTKVEVKGGGGSGGGGSEVQLVESGGGLVKPGVSLRLSCAASGFTFSRYSMNWVRQAPGKGLEWVSSISSSGTYIKYADSVKGRFTISRDNAKNSLNLQMNSLRAEDTAVYYCARDRDRYPLDYWGQGTLVTVSSRTVAAPSVFIFPPSDEQLKSGTASVVCLLNNFYPREAKVQWKVDNALQSGNSQESVTEQDSKDSTYSLSSTLTLSKADYEKHKVYACEVTHQGLSSPVTKSFNRGEC
For B3, the “FACS binding (geometric mean)” value in assay [3] was determined as 179.
